doi:10.1101/2021.05.28.446204

How the values were obtained:
Assay in all cases: fluorescence polarisation
[1] = molecular target: TAMRA-labeled CoV-2 nsp1 C-K R124A/K125A (SARS-CoV-2) (UniProt P0DTD1)
[2] = molecular target: TAMRA-labeled CoV-2 nsp1 C-K, wild type (SARS-CoV-2) (UniProt P0DTD1)
[3] = molecular target: TAMRA-labeled CoV-2 nsp1 C-K R99A (SARS-CoV-2) (UniProt P0DTD1)

purified ribosomes (crude 80S from HeLa cell lysate) (from UniProt P15880;P23396;P62847;P63244) (complex)
fold increase in Kd against WT nsp1 [1]: 2 fold
Kd [2]: 0.539 µM
fold increase in Kd against WT nsp1 [3]: 1.6 fold
